Source: paper PMC10821868
Where “and” joins values, the source holds several entries; their conditions need not be identical. Identical values can stand only once.

How the values were obtained:
[1] = target: PKM2 (mouse (endogenous in ImKCs)) (UniProt P52480); assay: cross-linking; DSS crosslinking followed by Western blotting, after DPI treatment; also with the ERK1/2 inhibitor SCH772984
[2] = target: PKM2 (mouse (endogenous in ImKCs)) (UniProt P52480); assay: native gel or EMSA; ImKCs treated with vehicle or DPI (50 and 500 nM) for 1 h (also 6 and 12 h); proteins extracted in Native PAGE sample buffer with 1% digitonin, run on native PAGE, anti-PKM2 Western blotting

Sequence of PKM2, P52480-1 1-531 (enzyme; other documents disagree on this pair) (P52480 whole entry): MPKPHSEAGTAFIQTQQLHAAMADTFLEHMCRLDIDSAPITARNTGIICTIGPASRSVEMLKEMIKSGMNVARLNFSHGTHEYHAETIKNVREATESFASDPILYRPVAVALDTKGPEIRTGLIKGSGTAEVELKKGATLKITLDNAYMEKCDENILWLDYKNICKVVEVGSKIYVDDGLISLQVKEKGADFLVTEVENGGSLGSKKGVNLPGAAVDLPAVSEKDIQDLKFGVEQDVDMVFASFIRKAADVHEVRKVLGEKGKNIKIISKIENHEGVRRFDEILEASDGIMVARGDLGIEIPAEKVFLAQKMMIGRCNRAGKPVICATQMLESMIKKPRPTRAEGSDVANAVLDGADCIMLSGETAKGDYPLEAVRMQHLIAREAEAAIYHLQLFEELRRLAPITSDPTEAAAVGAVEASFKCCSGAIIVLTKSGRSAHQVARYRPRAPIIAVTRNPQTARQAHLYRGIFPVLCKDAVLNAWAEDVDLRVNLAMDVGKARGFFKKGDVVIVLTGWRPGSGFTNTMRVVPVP

stoichiometry N [1]: 2 | stoichiometry N [2]: 2 and 4
Substance: PKM2, P52480-1 1-531 (enzyme; other documents disagree on this pair)
